B1: scFv 2-108 (scFv, V domains shown)
VH: EVQLVQSGGGLVQPGGSLRLSCAASGFTFSSYWMSWVRQAPGKGLEWVANIKQDGSEKHYVDSMKGRFTISRDNGKNSLYLQMNSLRAEDTAVYYCARSPGYYFDYWGQGTLVTVSS
VL: ELVVTQPPSASGTPGQRVTISCSGSSSNIGSNYVYWYEQLPGTAPKLLIYRNNQRPSGVPDRFSGSKSGTSASLAISGLRSEDEADYYCAAWDDSLRVYVFGTGTKLTVL
B2: scFv 1-410 (scFv, V domains shown)
VH: QVQLQESGGGVVQPGGSLRLSCAASGFTFDDYTMHWVRQAPGKGLEWVSLISWDGGSTYYADSVKGRFTISRDNSKNSLYLQMNSLRTEDTALYYCAKDNGYDILTDYLDSWGQGTLVTVSS
VL: ELQMTQSPSSLSASVGDRVTITCQASQDISNYLNWYQQKPGKAPKLLIYDASNLETGVPSRFSGSGSGTDFTFTISSLQPEDIATYYCQQYDNLPLTFGQGTRLEIK
B3: scFv 1-401 (scFv, V domains shown)
VH: QVQLVQSGAELKKPGSSVKVSCKASGGAFTMYTINWVRQAPGRGLEWMGRIIPILGITDYAQKFQGRGTITADKSTSTAYLELSGLTSEDTAVYYCAREFSGGNYFDFWGQGTLVTVSS
VL: ELVLTQPPSVSVAPGKTARMTCGGNNIGGYSVHWYQQKPGQAPVLVVYHDSDRPSGIPERFTGSNSGNMATLTISRVEAGDEADYYCQVWDSSNDHSVFGGGTELTVL
B4: scFv 1-458 (scFv, V domains shown)
VH: B3 VH
VL: ELVLTQPPSVSVAPGKTARIPCGGNNIGGKSVHWYQQRPGQAPVLVVYSDSVRPSGIPERFSGSNSGNTATLTISRVEAGDEADYYCQVWDRSSDHVVFGGGTQLTVL
B5: scFv 1-450 (scFv, V domains shown)
VH: QVQLVQSGAEVKKPGSSMNVSCKASGGTFSRHTINWVRQAPGQGLEWMGSIIPILGITNYAQNFQGRLTFSADKSTNTAYVELSGLRSEDTAVYYCASGDYYYDMAVWGQGTTVAVTS
VL: ELVLTQPPSVSVSPGQTARITCSGDALPKQYAYWYQQKPGQAPVLVIYKDSERPSGIPERFSGSSSGTTATLTISGVQAEDEADYYCQSAYSSGTVVFGGGTELTVL
B6: scFv 2-206 (scFv, V domains shown)
VH: QVQLVQSGADVKKPGSSVKVSCKASGGTFSSYTINWVRQAPGQGLEWMGRIVPILDIANYAQKFQGRVTITADKSTSTAYMELSSLTSEDTAVYYCARDRGYDNKYGAYWGQGTLVTVSS
VL: ELVLTQPPSVSVAPGQTARITCGGNNIGSKNVHWYQQKPGQAPVLVVYDDSDRPSGIPERFSGSNSGNTATLTISRVEAGDEADYYCQVWDSSSDHWVFGGGTKVTVL
B7: scFv 2-304 (scFv, V domains shown)
VH: QVHLVQSGAEVKKPGSSVKVSCKASGGTFSSYAISWVRQAPGQGLEWMGGITPILGVTNYSQKFQGRVTVTADISTTTAYMELSSLTSEDTAVYYCARDQGYANDYGAYWGQGTLVTVSS
VL: B6 VL with G28E, D52G, V105L
B8: scFv 2-207 (scFv, V domains shown)
VH: B7 VH with H3Q
VL: B6 VL with N31S, Y48H, S75G, E78G, K104Q, V105L
B9: scFv 2-301 (scFv, V domains shown)
VH: B7 VH with H3Q
VL: B6 VL with T21I, N31T, T71A, D91H
B10: scFv 1-413 (scFv, V domains shown)
VH: QVQLVQSGSEVKKPGSSVKVSCKASGGTFSSHTLSWVRQAPGQGLEWMGEIIPILDRVKYSQNFQGRVTITADKSTNTTYMELSSVRSEDTAVYYCVSNGWSNFDFWGQGTLVTVSP
VL: ELELTQPPSVSVSPGQTARITCSGGALPKHYVYWYQQKPGQAPAVVIYKDTERPSGIPERFSGSTSGATVTLTISGVQADDDAVYFCQSVDSNDTSWIFGGGTKLTVL
B11: scFv 1-418 (scFv, V domains shown)
VH: B10 VH with L34V, K59N, S61A, Q62E, E82D, V86L, V97T, P117S
VL: B10 VL with E3V, V32A, A68T
B12: scFv 1-417 (scFv, V domains shown)
VH: QVQLVQSGTEVKKFGSSVKVSCKASGGSFSSYTISWVRQAPGQGLEWMGSFIPILERANYAQKFQGRVTFTADKTTSTAYMELGGLRSQDTAVYYCARDLGDFGDSWGQGTLVTVSS
VL: ELVLTQPPSVSVAPGKTARITCGGNNIGSKTVHWYQQKPGQAPVVVVSDDSERPSGIPERFSGSNSGNTATLTISRVEGGDEADYYCQVWDSSNDQVVFGGGTELTVL
B13: scFv 1-415 (scFv, V domains shown)
VH: QVQLQESGGGVVQPGRSLRLSCAASGFTFRNYAMHWVRQAPGKGLEWVAVISYDGGKEYYADSVKGRFTISRDNSKNTLYLQMNSLRAEDTAVYYCARDTFSYYDFWRAFDYWGQGTLVTVSS
VL: ELELTQPPSVSGSPGQSITISCTGTSSDVGGYNYVSWYQQHPGKAPKLMIYEVSNRPSGVSNRFSGSKSGNTASLTISGLQAEDEADYYCSSYTSSSTVVFGGGTKLTVL
B14: scFv 1-437 (scFv, V domains shown)
VH: QVQLVQSGGGLVKPGGSLRLSCAASGFIFSNYIMNWVRQAPGKGLEWVSSISSSGSYIYYADSVKGRFTISRDNAKNSMYLQMNSLRGEDTAVYYCAAAYDFWSGYYFWGQGTTVTVSS
VL: B13 VL with E3A, S97T, T98P, V99Y, G103T, L107V
B15: scFv 1-441 (scFv, V domains shown)
VH: QVQLQESGGGVVQPGRSLRLSCTDSGFTFSRYAMHWVRQAPGKGLEWVAGISYDGSYEYYADSVKGRFTISRDNSKNTLYVQMNSLRGEDTAVYYCARDLRGGEDYWGQGTLVTVSS
VL: ELVVTQPPSVSAAPGQKVTISCSGSTSNIGNNYVSWYQQFPGTAPKLLIYDNNKRPSGIPDRFSGSKSGTSATLGITGLQTGDEADYYCGTWDSSLSAVVFGGGTKVTVL
B16: scFv 1-423 (scFv, V domains shown)
VH: QVQLVQSGAEVKRPGSSVKVSCKASGGTFSSYTISWVRQAPGQGLEWMGSIIPVLDVTSYAQQFQGRVTITADKSTKTAYMDLSSLTFEDTALYFCSIGRYTYGHFDTWGQGTQVTVSS
VL: ELVLTQPPSVSVAPGKTARVTCGGGNIGDKAVHWYQQRPGQAPVLVVFGDSARPSGIPERFSGSNSGNTATLTISRVEVGDEADYYCQVWDSNSDHQVFGGGTKLTVL
B17: scFv 1-451 (scFv, V domains shown)
VH: QVQLVQSGGGLVQPGRSLRLSCAASGFIFDDYAMHWVRQAPGKGLEWVSGISWNSGSIGYADSVKGRFTISRDNAKNSLYLQMNSLRAEDTALYYCAKDPNSLYRSGSFDYWGQGTLVTVSS
VL: not shown
B18: scFv 1-440 (scFv, V domains shown)
VH: B17 VH with Q1E, V5L, Q6E
VL: ELQMTQSPSSLSASVGDRVTITCRASQSISSYLNWYQQKPGKAPKLLIYAASSLESGVPSRFSGSGSGTDFTLTISSLQPEDFASYYCQQSYSTPFTFGPGTKVDIK
B19: scFv z1-201 (scFv, V domains shown)
VH: B17 VH with S7F
VL: not shown
B20: scFv 1-432 (scFv, V domains shown)
VH: QVQLVQSGAEVKKPLSSVKVSCKASGGTFNMYDINWVRQAPGQGLEWMGGIVPILGVTNYAQNFQGRLTITADKSTSTAYMELSSLRSEDTAVYYCARGVAAGWNAFDVWGQGTMVTVSA
VL: ELVLTQPPSMSVVPGQTARITCGGDNIGSKSVHWYQQKPGQAPVLVVNDDTERPSGIPDRFSGSNSGNTATLVISRVGAGDEADYFCQVWDSRSDHQVFGGGTKLTVL

Where a chain is given by its changes, count along the chain named.

The target in the experiment is T1, human ADAMTS13 (human, UniProt Q76LX8 75-1427).
T1 construct: ELISA: full-length recombinant ADAMTS13 coated on plates (Technoclone); Activity assays: endogenous ADAMTS13 of normal human plasma; also called full-length human recombinant ADAMTS13; VWF-cleaving protease
T1 sequence (looked up): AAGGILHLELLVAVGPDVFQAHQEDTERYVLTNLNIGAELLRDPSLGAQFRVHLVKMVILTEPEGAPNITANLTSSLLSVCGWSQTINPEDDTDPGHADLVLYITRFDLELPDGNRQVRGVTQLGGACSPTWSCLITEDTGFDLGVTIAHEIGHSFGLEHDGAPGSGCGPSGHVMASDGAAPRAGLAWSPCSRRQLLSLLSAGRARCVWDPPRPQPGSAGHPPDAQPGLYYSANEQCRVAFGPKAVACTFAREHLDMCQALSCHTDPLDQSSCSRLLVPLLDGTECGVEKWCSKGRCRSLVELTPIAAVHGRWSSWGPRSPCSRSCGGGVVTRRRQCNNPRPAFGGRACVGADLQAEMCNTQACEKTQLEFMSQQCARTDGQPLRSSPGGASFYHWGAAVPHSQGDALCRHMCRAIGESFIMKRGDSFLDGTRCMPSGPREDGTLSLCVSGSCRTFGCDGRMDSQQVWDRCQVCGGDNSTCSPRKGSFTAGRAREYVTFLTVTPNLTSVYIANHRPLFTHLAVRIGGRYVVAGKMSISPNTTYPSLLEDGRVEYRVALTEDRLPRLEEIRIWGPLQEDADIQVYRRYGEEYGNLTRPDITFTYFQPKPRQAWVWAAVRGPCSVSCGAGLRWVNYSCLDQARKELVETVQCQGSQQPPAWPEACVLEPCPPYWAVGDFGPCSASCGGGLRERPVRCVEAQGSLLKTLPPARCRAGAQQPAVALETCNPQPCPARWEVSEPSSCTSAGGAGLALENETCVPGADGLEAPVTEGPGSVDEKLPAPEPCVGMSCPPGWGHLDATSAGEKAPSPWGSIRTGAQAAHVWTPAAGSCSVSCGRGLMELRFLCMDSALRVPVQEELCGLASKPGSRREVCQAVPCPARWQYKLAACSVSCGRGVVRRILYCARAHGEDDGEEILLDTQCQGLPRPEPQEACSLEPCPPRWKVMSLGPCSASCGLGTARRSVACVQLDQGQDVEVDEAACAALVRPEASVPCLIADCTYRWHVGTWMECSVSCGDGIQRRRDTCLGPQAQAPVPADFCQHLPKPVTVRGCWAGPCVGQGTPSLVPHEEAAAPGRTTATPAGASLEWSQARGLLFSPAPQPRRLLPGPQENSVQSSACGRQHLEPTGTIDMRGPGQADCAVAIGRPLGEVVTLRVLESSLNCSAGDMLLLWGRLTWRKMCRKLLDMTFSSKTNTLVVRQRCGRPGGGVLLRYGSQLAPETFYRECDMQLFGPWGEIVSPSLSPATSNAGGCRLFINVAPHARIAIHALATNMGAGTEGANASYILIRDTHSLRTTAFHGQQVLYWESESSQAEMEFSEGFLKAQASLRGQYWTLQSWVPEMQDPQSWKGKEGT
The experiment in a line: phage ELISA on ADAMTS13-coated plates (positive: >10-fold absorbance above background). Background: ELISA stands for enzyme-linked immunosorbent assay.
B1: the binding result is on record as “binds”.

On to B2, for which the binding result is recorded as “binds”.

Take B3: the binding result is given as “binds”.

Turning to B4, the binding result is “binds”.

Consider B5, for which the binding result is given as “binds”.

On to B6, for which the binding result is listed as “binds”.

Regarding B7, the binding result is reported as “binds”.

On to B8, for which the binding result is listed as “binds”.

Turning to B9, the binding result is “binds”.

On to B10, for which the binding result was “binds”.

With B11, the binding result was “binds”.

For B12, the binding result is reported as “binds”.

For the molecule B13, the binding result is reported as “binds”.

As to B14, the binding result is recorded as “binds”.

With B15, the binding result was “binds”.

As to B16, the binding result is given as “binds”.

B17: the binding result was “binds”.

Regarding B18, the binding result was “binds”.

On to B19, for which the binding result is recorded as “binds”.

Consider B20, for which the binding result is listed as “binds”.

(Values after patent publication US20190031771A1 (University of Pennsylvania, published 2019).)
